Results: paper PMC10779143, “Collagen-like Osteoclast-Associated Receptor (OSCAR)-Binding Motifs Show a Co-Stimulatory Effect on Osteoclastogenesis in a Peptide Hydrogel System” (International Journal of Molecular Sciences, 2023)
One block for each binder: values may come before it. [ ]: non-standard residue; d: D form. Hyp = O=C(O)[C@@H]1C[C@@H](O)CN1

Target: T1, Recombinant human OSCAR-Fc chimera (human)
T1 construct: extracellular region of human osteoclast-associated receptor (OSCAR), Asp19-Asn229 of NP_573399; In the functional rows the OSCAR of the test system is the endogenous mouse receptor of Raw 264.7 cells, not this construct; also called osteoclast-associated receptor; source: bought: R&D Systems, Bio-Techne, 9955-OS
Experiment: SPR; Biacore T200, CM5 chip; OSCAR-Fc immobilised by amine coupling to 6880 RU; peptides flowed as analytes at 30 µL/min, 25 °C, 10 mM PBS, 150 mM NaCl, 0.05% Tween20, pH 7.4; OP1_Hyp 5000-0 nM (Langmuir 1:1 kinetic fit), OP1_Pro 40,000-0 nM (steady-state analysis)
Settings: both partners purified

Kd: 2.63 µM
B1: OP1_Hyp (peptide)
chain: Ac-GP[Hyp]GP[Hyp]GP[Hyp]GA[Hyp]GPAGFAGP[Hyp]GP[Hyp]GP[Hyp]-NH2
SMILES: CC(=O)NCC(=O)N1CCC[C@H]1C(=O)N1C[C@H](O)C[C@H]1C(=O)NCC(=O)N1CCC[C@H]1C(=O)N1C[C@H](O)C[C@H]1C(=O)NCC(=O)N1CCC[C@H]1C(=O)N1C[C@H](O)C[C@H]1C(=O)NCC(=O)N[C@@H](C)C(=O)N1C[C@H](O)C[C@H]1C(=O)NCC(=O)N1CCC[C@H]1C(=O)N[C@@H](C)C(=O)NCC(=O)N[C@@H](Cc1ccccc1)C(=O)N[C@@H](C)C(=O)NCC(=O)N1CCC[C@H]1C(=O)N1C[C@H](O)C[C@H]1C(=O)NCC(=O)N1CCC[C@H]1C(=O)N1C[C@H](O)C[C@H]1C(=O)NCC(=O)N1CCC[C@H]1C(=O)N1C[C@H](O)C[C@H]1C(N)=O

Kd: 19.5 µM
B2: OP1_Pro (peptide)
chain: Ac-GP[Hyp]GP[Hyp]GP[Hyp]GAPGPAGFAGP[Hyp]GP[Hyp]GP[Hyp]-NH2
SMILES: CC(=O)NCC(=O)N1CCC[C@H]1C(=O)N1C[C@H](O)C[C@H]1C(=O)NCC(=O)N1CCC[C@H]1C(=O)N1C[C@H](O)C[C@H]1C(=O)NCC(=O)N1CCC[C@H]1C(=O)N1C[C@H](O)C[C@H]1C(=O)NCC(=O)N[C@@H](C)C(=O)N1CCC[C@H]1C(=O)NCC(=O)N1CCC[C@H]1C(=O)N[C@@H](C)C(=O)NCC(=O)N[C@@H](Cc1ccccc1)C(=O)N[C@@H](C)C(=O)NCC(=O)N1CCC[C@H]1C(=O)N1C[C@H](O)C[C@H]1C(=O)NCC(=O)N1CCC[C@H]1C(=O)N1C[C@H](O)C[C@H]1C(=O)NCC(=O)N1CCC[C@H]1C(=O)N1C[C@H](O)C[C@H]1C(N)=O
